The target in experiment [1] is T1, galectin-3 (human (endogenous in A2780), UniProt P17931 1-250, biotinylated (printed: 'biotinylated galectin-3')). Kind of experiment: SPR.
For experiment [2], the target named is T1, galectin-3. In words: SPR. The source holds these as a separate data set.
For experiment [3], the target named is T1, galectin-3. In words: SPR; platelets exposed to Revacept.
Experiment [4] has as its target T1, galectin-3. Kind of experiment: SPR; platelets exposed to anti-GPVI mAb. (In general: In SPR one partner is held on a chip, and binding of the other changes the refractive index at the surface.)

T1 sequence (P17931 whole entry): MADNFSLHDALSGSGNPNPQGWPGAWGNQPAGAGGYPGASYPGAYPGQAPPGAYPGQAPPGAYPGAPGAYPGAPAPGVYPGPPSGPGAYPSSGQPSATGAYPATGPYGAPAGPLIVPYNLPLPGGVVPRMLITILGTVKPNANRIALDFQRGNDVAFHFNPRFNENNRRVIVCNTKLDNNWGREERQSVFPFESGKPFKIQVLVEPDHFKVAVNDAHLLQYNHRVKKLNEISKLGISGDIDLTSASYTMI

B1: platelet glycoprotein VI (GPVI) (receptor)
chain: QSGPLPKPSLQALPSSLVPLEKPVTLRCQGPPGVDLYRLEKLSSSRYQDQAVLFIPAMKRSLAGRYRCSYQNGSLWSLPSDQLELVATGVFAKPSLSAQPGPAVSSGGDVTLQCQTRYGFDQFALYKEGDPAPYKNPERWYRASFPIITVTAAHSGTYRCYSFSSRDPYLWSAPSDPLELVVTGTSVTPSRLPTEPPSPVAEFSEATAELTVSFTNEVFTTETSRSITASPKESDSPAGPARQYYTKGNLVRICLGAVILIILAGFLAEDWHSRRKRLRHRGRAVQRPLPPLPPLPLTRKSNGGQDGGRQDVHSRGLCS
Broadly, the Kd is the equilibrium constant for the complex coming apart. A low value points to a tighter complex. Take B1: the Kd was 42.2 µM with galectin-3 [1], 48.6 µM with galectin-3 [2], 16.2 µM with galectin-3 [3] and 21.4 µM in the experiment with galectin-3 [4].

The values are drawn from article PMC8294767 (2021).
